Data set [1] has as its system Theophylline aptamer, RNA-MaP condition construct (RNA, aptamer) GGAAAGGCGAGGAUACCAGCGUUCGCGCCCUUGGCAGCCUCGCCAAAGAAACAACAACAACAAC
The data set can be described thus: DMS chemical mapping. As to conditions: 80 mM KCl, 4 mM MgCl2; 100 mM Tris-HCl, pH 7.5, 37 °C.

The subject of data set [2] is Theophylline aptamer, Light-up construct (RNA, aptamer) GGGAACGUCUCCGAGUAGGAGACGAAGGGAGAGUGGCAGCUUACAACCUGAAGGACGGGUCCCCAGUAAUAAUGAUACCAGGAACAAAAGUUCCCCUUGGCAGCAUCUGGGUUGAGUAGAGUGUGAGCAGGAAGUGGGCUGUUGCUUUUCCAAGCUUAUCGAGUAGAUAAGCAAAAAGAAACAACAACAACAAC
The data set can be described thus: DMS chemical mapping. As to conditions: 5 mM MgCl2, 1x PBS, pH 6.1, 24 °C.

The target of data set [3] is T1, MS2 coat protein, dlFG mutant (Escherichia phage MS2, UniProt P03612, del68-81insG). Briefly: 4 mM Mg2+; no ligand; RNA-MaP array; 100 mM Tris-HCl pH 7.5, 80 mM KCl, 4 mM MgCl2, 0.1 mg/mL BSA, 1 mM DTT, 0.01 mg/mL yeast tRNA, 0.01% Tween-20; protein 1.5 nM to 3 uM; 37 C (Table S3). As to conditions: chain copies: 2; label: tethered by stalled RNA polymerase.
Data set [4] addresses T1, MS2 coat protein, dlFG mutant. The data set can be described thus: 4 mM Mg2+; miR-208a RNA 100 nM (AU…UUGU); RNA-MaP array; 100 mM Tris-HCl pH 7.5, 80 mM KCl, 4 mM MgCl2, 0.1 mg/mL BSA, 1 mM DTT, 0.01 mg/mL yeast tRNA, 0.01% Tween-20; protein 1.5 nM to 3 uM; 37 C (Table S3). The note with it: chain copies: 2; label: tethered by stalled RNA polymerase.
Data set [5] has the same target. The data set can be described thus: 4 mM Mg2+; theophylline 2 mM; RNA-MaP array; 100 mM Tris-HCl pH 7.5, 80 mM KCl, 4 mM MgCl2, 0.1 mg/mL BSA, 1 mM DTT, 0.01 mg/mL yeast tRNA, 0.01% Tween-20; protein 1.5 nM to 3 uM; 37 C (Table S3). The note with it: chain copies: 2; label: tethered by stalled RNA polymerase.
Data set [6] shares this target. Briefly: 4 mM Mg2+; L-tryptophan 2.4 mM; RNA-MaP array; 100 mM Tris-HCl pH 7.5, 80 mM KCl, 4 mM MgCl2, 0.1 mg/mL BSA, 1 mM DTT, 0.01 mg/mL yeast tRNA, 0.01% Tween-20; protein 1.5 nM to 3 uM; 37 C (Table S3). The note with it: chain copies: 2; label: tethered by stalled RNA polymerase.
For data set [7] the target is unchanged. Briefly: 4 mM Mg2+; FMN 200 uM; RNA-MaP array; 100 mM Tris-HCl pH 7.5, 80 mM KCl, 4 mM MgCl2, 0.1 mg/mL BSA, 1 mM DTT, 0.01 mg/mL yeast tRNA, 0.01% Tween-20; protein 1.5 nM to 3 uM; 37 C (Table S3). As to conditions: chain copies: 2; label: tethered by stalled RNA polymerase.

With `Cn1c(=O)c2[nH]cnc2n(C)c1=O`, the figures for the dissociation constant Kd in data set [1] and in data set [2] were 13.11 ± 9.21/-4.86 μM and 239.54 ± 161.15/-96.27 μM, respectively.

B1: Eterna 7747481 (Same State - Arginine B) (ssRNA)
RNA: GCCGUAGAUUGAAGGAGCGACAUAAACGAUGUUCUGGUAGUGAUGUUACCUUAGCAGGCAUGUCAGGUAGGUCGCAAUCUACGGC
Turning to B1, in data set [3], the Kd (as a rule, a measure of binding affinity in units of concentration) was over 3000 nM.

B2: Eterna 6457817 (Inverted Small Loop Same State NG 3) (ssRNA)
RNA: GCGUAAUAGGUGUAGCUAGUCGUUCAAGAAGGGUGAAGAACAUGAGGAUCACCCAUGUGGUCUAUACAGGAUAUUGAUAUACGC
B2: binding in data set [3] was put at a Kd of 607 nM.

B3: Eterna 11920 (Sensor v3, turn-off variant 2) (ssRNA)
RNA: UUUAAACUUACAAUCUUCGCUGGCAUGCUUGUGCCAGCUACAUGAGGAUCACCCAUGUUUUUUGCUCGUCUUAUUCU
B3 showed a dissociation constant Kd in data set [4] of 95 nM.

B4: Eterna 7623315 (Exclusion - Theophylline A) (ssRNA)
RNA: AUUAUCAUGGUCAUAUAUAUUUCGUCAGAUACCAGACUAGAUAUAGUCCCUUGGCAGCUGUUACAUGAGGAUCACCCAUGUUAUA
B4 showed a Kd in data set [5] of 45.8 nM.

B5: Eterna 7681766 (Exclusion - Tryptophan A) (ssRNA)
RNA: UGUGAACAAAAGUAGAGUGGACCACUAUAGCGAGGACCGGUACGGCCGCCACUCGUAUAUAAAUUCAGUGAUGUUGAAAAGAGCU
B5 came in with a dissociation constant Kd in data set [3] of over 3000 nM.

B6: Eterna 7684249 (Exclusion - Tryptophan B) (ssRNA)
RNA: UUUAUAAUGUCGGCCGCCACUGGAUUAAUAUUUGUAUAAUCUAGUUCUGAGUGAUGUUUAGAGUCCAGGACCGGGACAUUUGUUA
In data set [3], B6 yielded a Kd of over 3000 nM.

B7: Eterna 7684615 (Exclusion - Tryptophan A) (ssRNA)
RNA: AAAAUUGCGGUCGAUAGAACUUUUUGCUUACGAGGACCGGUACGGCCGCCACUCGAGUCAAGUGAUGUUUGAUUUUCUAUUAUUA
On to B7, for which the Kd in data set [3] is over 3000 nM.

B8: Eterna 7733368 (Same State - Tryptophan B) (ssRNA)
RNA: GGGUACAUCGCGGCCGCCACUUAUGUAAAUACAUGAGGAUCACCCAUGUCGAUGGAGACAUCGGUAAGGACCGGGUGAUGUACCG
B8 showed a Kd in data set [6] of 19.3 nM.

B9: Eterna 5956827 (Exclusion NG 2) (ssRNA)
RNA: UUUGUUUUGCAAGGAUAUGUUUAAUUUUAGUUUCCUUACACAUGAGGAUCACCCAUGUUAUACUUACAGAAGGUGCGUAAUUUU
B9: in data set [7], the dissociation constant Kd worked out at 94 nM.

B10: Eterna 7724662 (Same State - FMN B) (ssRNA)
RNA: GUAUCGCUAGGAGGAUAUUUCAAAUAACAAAUAAAUGGUUAUACGGAGUGAUGUUCCGAUUUACGGAAAGAAGGCCUAGUGAUAC
As for B10, the Kd in data set [3] was over 3000 nM.

B11: Eterna 7612216 (Same State - Tryptophan B) (ssRNA)
RNA: GCUAGGUCAUCGGCCGCCACUAACGACGGUUCCAACAUGAGGAUCACCCAUGUGCCACAUGCGCAUAGGACCGGGAUGACCUAGC
As to B11, binding in data set [6] was put at a Kd of 21 nM.

B12: Eterna 7727988 (Exclusion - Theophylline B) (ssRNA)
RNA: GGGAACUCUUACGAUACCAGCCGGAGUGAUGUUCCGCGCUUGGACGUAGUAACCCGCACCGGCCCUUGGCAGCGUGGAUCUUAUA
In data set [3], B12 came in with an equilibrium dissociation constant (Kd) of over 3000 nM.

B13: Eterna 7672552 (Same State - Tryptophan A) (ssRNA)
RNA: UAAGAAUAAGUAGCAGUGAUGUUGCUACUACGAGGACCGGUACGGCCGCCACUCGAGUCCUCGAAACAUCACUGAACGAGGAAUA
The molecule B13 registered a Kd in data set [3] of over 3000 nM.

B14: Eterna 1282 (Exclusion - Tryptophan B) (ssRNA)
RNA: GGAUUGCGUUCGGCCGCCACUAGACUACAUUCCACGCCCGACCCGUUUUUAAGUGAUGUUUAAACUAGGACCGGGAACCGAUUUC
On to B14, for which, in data set [3], the Kd is over 3000 nM.

B15: Eterna 7730944 (Same State - Tryptophan A) (ssRNA)
RNA: UAAAACGCUUGAAUAACAAGCGAAAAUUCGCGAGGACCGGUACGGCCGCCACUCGCUAACUGCGAGUGAUGUUCGAUAAUAAAAU
Molecule B15 yielded an equilibrium dissociation constant (Kd) in data set [3] of over 3000 nM.

B16: Eterna 6108893 (Exclusion NG 1) (ssRNA)
RNA: GCGUAAAAUGUAGGAUAUGACACAGGAAACUGGUCAGAAGGACAUGAGGAUCACCCAUGUAAAAUGUUCAAGAAUAACUCAUGC
Molecule B16 had a Kd in data set [3] of 123 nM.

B17: Eterna 6136258 (Same State NG 2) (ssRNA)
RNA: UAAUCUCAGAUAGGAUAUAUAGGAUAACUUAAGACCUAACAUGAGGAUCACCCAUGUGAUUAUUCGUAGAAGGAUCAUUGACCC
For the molecule B17, the dissociation constant Kd in data set [3] is 162 nM.

B18: Eterna 7691696 (Same State - Theophylline B) (ssRNA)
RNA: UGUCAUUGGUCUGAUACCAGAAGAUAAUCUGGAGUGAUGUUCCAAGUACGACAAAGUCGCUUCCCUUGGCAGCAGACCGAUGACU
Regarding B18, the equilibrium dissociation constant (Kd) in data set [3] is over 3000 nM.

B19: Eterna 6002686 (Brourd's mod of Exclusion 4) (ssRNA)
RNA: UAACAAAUUGUCAGGAUAUCAGUCCCGGCCCAGAUUGAGAAGGGACAUGAGGAUCACCCAUGUAUGAUUCUCAG
The molecule B19 registered a Kd in data set [3] of 93.5 nM.

B20: Eterna 6063666 (Exclusion 4) (ssRNA)
RNA: UAUGUGUCAGGAUAUUGUUAAUUUAGUUGUUUGUAUUAGUUCGAGAAGGGACAUGAGGAUCACCCAUGUUGUUU
The molecule B20 showed an equilibrium dissociation constant (Kd) in data set [7] of 31.1 nM.

B21: Eterna 5958224 (Same State NG 3) (ssRNA)
RNA: CGAGGCGUACAUGAGGAUCACCCAUGUACCUAACAACAAAGCAAGGAUAUCCUGGCUAUAAUACAGGAGAAGGUGUGGUCCUUA
In data set [3], B21 yielded a Kd of 135 nM.

B22: Eterna 13224 (Sensor for hsa-mir-208a) (ssRNA)
RNA: ACCCAAAGUAUAUGGGAACAAGCUUUUUAACAUGAGGAUCACCCAUGUGCUCGUCUUAUAAGCAGUCGAAAGACUGC
Molecule B22 had a Kd in data set [4] of 17.1 nM.

Source of the values: publication PMC9170038.
